In article PMC4939079 (Nature structural & molecular biology, 2016):

Target: the molecule itself
Experiment: affinity purification with mass spectrometry

B1: Bap1-GFP (natural protein)
chain: MNKGWLELESDPGLFTLLVEDFGVKGVQVEEIYDLQSKCQGPVYGFIFLFKWIEERRSRRKVSTLVDDTSVIDDDIVNNMFFAHQLIPNSCATHALLSVLLNCSNVDLGPTLSRMKDFTKGFSPESKGYAIGNAPELAKAHNSHARPEPRHLPEKQNGLSAVRTMEAFHFVSYVPITGRLFELDGLKVYPIDHGPWGEDEEWTDKARRVIMERIGLATAGEPYHDIRFNLMAVVPDRRIKYETRLHVLKVNRQTVLEALQQLIRVTQPELIQTHKSQESQLPEESKPASSKSPLGLEAGRTPVASECTQTDGAEEVAGSCPQTTTHSPPSKCKLVVKPPGSSLNGVPPNPAPIVQRLPAFLDNHNYAKSPMQEEEDLAAGVGRSRVPVRAPQQYSEDEDDYEDEDEDVQNTNPAIRYKRKGTGKPGSLSNSSDGQLSVLQPNTINVLTEKLQESQKDLSVPLSIKTSSGAGSPAVAVPTHSQPSPTPSNESTDTASEIGSAFNSPLRSPIRSANPTRPSSPVTSHISKVLFGEDDSLLRVDCIRYNRAVRDLGPVISTGLLHLAEDGVLSPLALTEGGKGSSPSTRSSQGSQGSSGLEEKEVVEVTESRDKPGLNRSSEPLSGEKYSPKELLALLKCVEAEIANYEACLKEEVEKRKKFKIDDQRRTHNYDEFICTFISMLAQEGMLANLVEQNISVRRRQGVSIGRLHKQRKPDRRKRSRPYKAKRQ
  stoichiometry N: ~2
